Series [1] deals with the molecule itself. The series can be described thus: SEC; Superdex 75 column, 100 ug wild-type CmoM, 25 mM HEPES pH 7.5, 150 mM NaCl, 0.5 ml/min; ovalbumin (44 kDa) and MnmC (76 kDa) run for comparison.
The target in series [2] is T1, CmoM (Escherichia coli (ASKA library clone), UniProt P36566 1-261).
T1 sequence: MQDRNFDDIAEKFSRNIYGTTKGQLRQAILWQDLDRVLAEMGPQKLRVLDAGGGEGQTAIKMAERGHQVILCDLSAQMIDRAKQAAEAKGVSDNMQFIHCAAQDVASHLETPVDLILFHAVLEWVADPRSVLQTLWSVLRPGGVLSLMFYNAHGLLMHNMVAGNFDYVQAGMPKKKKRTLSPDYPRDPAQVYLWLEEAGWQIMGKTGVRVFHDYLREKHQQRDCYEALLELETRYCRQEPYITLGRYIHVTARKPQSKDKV
The series is described as follows: X-ray crystallography (2.22 A); sinefungin (3 mM); Mg2+ (0.04 M magnesium acetate in reservoir); Crystallization: CmoM:tRNA 1:4 molar ratio, 3 mM sinefungin; reservoir 0.04 M Mg acetate, 0.05 M Na cacodylate pH 6.0, 30% MPD, 25 C; protein in 25 mM HEPES pH. Conditions: protein: recombinant; tags: His tag (ASKA pCA24N vector; HisTrap purified); tRNA fold with 16-nt variable arm.

B1: Escherichia coli CmoM (wild type, recombinant) (enzyme, E. coli)
chain: QDRNFDDIAEKFSRNIYGTTKGQLRQAILWQDLDRVLAEMGPQKLRVLDAGGGEGQTAIKMAERGHQVILCDLSAQMIDRAKQAAEAKGVSDNMQFIHCAAQDVASHLETPVDLILFHAVLEWVADPRSVLQTLWSVLRPGGVLSLMFYNAHGLLMHNMVAGNFDYVQAGMPKKKKRTLSPDYPRDPAQVYLWLEEAGWQIMGKTGVRVFHDYLREKHQQRDCYEALLELETRYCRQEPYITLGRYIHVTARKPQSKDKV
notes: CmoM, SAM-dependent tRNA cmo5U34 methyltransferase of E. coli; cmoM gene on pCA24N from the ASKA library; calculated monomer molecular weight 31.7 kDa; 257 protein residues modelled in the crystal structure; also called E. coli CmoM; source: E. coli BL21 (DE3), purified (HisTrap HP Ni2+ column); not shown: His tag (inferred from the HisTrap Ni2+ purification)
For B1, the “stoichiometry N” value in series [1] amounted to 2.

B2: tRNASer1(cmo5UGA) (structured_RNA)
RNA: GGAAGUGUGGCCGAGCGGUUGAAGGCACCGGUCUUGAAAACCGGCGACCCGAAAGGGUUCCAGAGUUCGAAUCUCUGCGCUUCCGCCA
modifications: cmo5U34; i6A37 (partly ms2i6A37); other native tRNA modifications
Regarding B2, in series [2], the binding result is recorded as “binds”.
